Here are results for 12 molecules from patent US9081020B2, “Mutant proteins and methods for selecting them” (Heptares Therapeutics Limited, priority 2008, dated 2015).

T1: M1 mAChR (Rattus norvegicus, UniProt P08482, DEL225-353/L65A)
T1 construct: (His)9QGG (C); expressed in transfected cells; host or cells: E. coli BL21 (whole cells)
T1 sequence (P08482 with tags, fused parts or gaps L65A/DEL225-353): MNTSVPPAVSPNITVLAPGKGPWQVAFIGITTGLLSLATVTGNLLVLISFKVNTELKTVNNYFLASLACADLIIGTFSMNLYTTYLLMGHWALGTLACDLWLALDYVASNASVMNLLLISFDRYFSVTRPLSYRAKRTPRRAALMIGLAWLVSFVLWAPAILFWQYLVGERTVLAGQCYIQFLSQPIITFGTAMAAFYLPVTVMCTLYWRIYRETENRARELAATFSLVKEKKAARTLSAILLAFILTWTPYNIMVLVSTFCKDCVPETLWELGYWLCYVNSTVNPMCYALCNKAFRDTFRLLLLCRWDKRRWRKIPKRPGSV

B1: L65A: M1 mAChR mutant L65A (TM2); background and internal control in Example 3 (protein, UniProt P11229 1-460, looked up, variant L65A)
Muscarinic acetylcholine …: MNTSAPPAVSPNITVLAPGKGPWQVAFIGITTGLLSLATVTGNLLVLISFKVNTELKTVNNYFLASLACADLIIGTFSMNLYTTYLLMGHWALGTLACDLWLALDYVASNASVMNLLLISFDRYFSVTRPLSYRAKRTPRRAALMIGLAWLVSFVLWAPAILFWQYLVGERTVLAGQCYIQFLSQPIITFGTAMAAFYLPVTVMCTLYWRIYRETENRARELAALQGSETPGKGGGSSSSSERSQPGAEGSPETPPGRCCRCCRAPRLLQAYSWKEEEEEDEGSMESLTSSEGEEPGSEVVIKMPMVDPEAQAPTKQPPRSSPNTVKRPTKKGRDRAGKGQKPRGKEQLAKRKTFSLVKEKKAARTLSAILLAFILTWTPYNIMVLVSTFCKDCVPETLWELGYWLCYVNSTINPMCYALCNKAFRDTFRLLLLCRWDKRRWRKIPKRPGSVHRTPSRQC
B2: L65V: M1 mAChR mutant L65V selected from random mutagenesis screen (protein)
chain: B1 Muscarinic acetylcholine … with A65V
B3: L65A/L144A: M1 mAChR double mutant, Ala mutation on L65A background (protein, UniProt P11229 1-460, looked up, variant L65A L144A)
Muscarinic acetylcholine …: B1 Muscarinic acetylcholine … with L144A
B4: L65A/E397A: M1 mAChR double mutant, Ala mutation on L65A background (protein, UniProt P11229 1-460, looked up, variant L65A E397A)
Muscarinic acetylcholine …: B1 Muscarinic acetylcholine … with E397A
B5: L65A/Y82A: M1 mAChR double mutant, Ala mutation on L65A background (protein, UniProt P11229 1-460, looked up, variant L65A Y82A)
Muscarinic acetylcholine …: B1 Muscarinic acetylcholine … with Y82A
B6: L65A/C205A: M1 mAChR double mutant, Ala mutation on L65A background (protein, UniProt P11229 1-460, looked up, variant L65A C205A)
Muscarinic acetylcholine …: B1 Muscarinic acetylcholine … with C205A
B7: L65A/V409A: M1 mAChR double mutant, Ala mutation on L65A background (protein, UniProt P11229 1-460, looked up, variant L65A V409A)
Muscarinic acetylcholine …: B1 Muscarinic acetylcholine … with V409A
B8: L65A/T202A: M1 mAChR double mutant, Ala mutation on L65A background (protein, UniProt P11229 1-460, looked up, variant L65A T202A)
Muscarinic acetylcholine …: B1 Muscarinic acetylcholine … with T202A
B9: L65A/L402A: M1 mAChR double mutant, Ala mutation on L65A background (protein, UniProt P11229 1-460, looked up, variant L65A L402A)
Muscarinic acetylcholine …: B1 Muscarinic acetylcholine … with L402A
B10: L65A/Y208A: M1 mAChR double mutant, Ala mutation on L65A background (protein, UniProt P11229 1-460, looked up, variant L65A Y208A)
Muscarinic acetylcholine …: B1 Muscarinic acetylcholine … with Y208A
B11: L65F: M1 mAChR mutant L65F, homologous to M4 mAChR (protein)
chain: B1 Muscarinic acetylcholine … with A65F
B12: L65A/W101A: M1 mAChR double mutant, W101A on L65A background (protein, UniProt P11229 1-460, looked up, variant L65A W101A)
Muscarinic acetylcholine …: B1 Muscarinic acetylcholine … with W101A

Residue numbers refer to the chain shown, from its start. Numbers in names are those of the source. Where “and” joins values, the source holds several entries; their conditions need not be identical. Identical values can stand only once.

The first series deals with T1, M1 mAChR.
Assay: not given
The following applies: after in-situ destabilisation in BOG or DDM. The class given is physicochemical. How it is done:
(§1) This concentration was determined by analysing wild-type M1 mAChRs expressed in the inner cell membranes of intact E. Coli strain BL21 cells. The cells were pre-labelled with the radiolabelled antagonist 3H—N-methyl scopolamine and resuspended to a pre-determined cell density (Absorbance at 600 nm=2.0) in a chosen buffer (in this case 50 mM sodium phosphate, 1 mM EDTA, pH 7.5). […] The wild-type M1 mAChRs were titrated by the addition of increasing concentrations of beta octyl glucoside dissolved in the same buffer for different times (e.g. 1 h, 2 h, 3 h, 5 h, 15 h) and at different temperatures (e.g. 4° C., 15° C.). The loss of specifically-bound radioligand was then measured after recovering the cells by centrifugation (15000×g, 15 min.). In the example, the centrifugation step was performed on duplicate 1 ml aliquots of the cells. The experiment was repeated 3 times. […] It will be appreciated that the cell density, detergent concentration and other parameters of the assay may be varied to adjust the loss of activity as appropriate.
(§2) (a) A state of in-situ destabilisation of a particular membrane protein in a particular cell membrane as a result of the addition of a particular concentration of a particular detergent, can be defined by the loss of the characteristic specific ligand binding activity of the membrane protein for a particular ligand of interest in the presence of a defined concentration of a particular detergent molecule or other solubilising agent.
(§3) A preferred version of the assay is destabilisation of a membrane protein-ligand complex in a detergent-enriched membrane. The membrane protein, either in a membrane preparation, or in intact cells in-vivo or ex-vivo, is pre-incubated with a labelled version of the ligand, the label, for instance, being a radioactive label, or a fluorescent label, and the binding step preferably being allowed to proceed to equilibrium, defined as the achievement of a time-invariant level of binding. To define membrane protein-independent, or non-specific, binding the binding step is performed with the addition of a second non-labelled ligand, called the competing ligand, having an appropriate membrane protein-specific pharmacology, at a concentration sufficient fully to occupy the binding sites of the membrane protein and thereby exclude the binding of the labelled ligand. The difference between the binding of the labelled ligand in the absence and presence of the competing ligand is defined as the specific binding of the labelled ligand. Measurement of binding requires a suitable method for separating and measuring bound ligand. Characteristically, this involves centrifugation of intact cells or membranes for a time and at a centrifugal force adequate to pellet them (for instance, 15000×g for 15 min in the case of E. coli cells, or 100,000×g for plasma membrane preparations), or filtration of a membrane suspension e.g. through a suitable filter paper such as glass fibre paper e.g. GF-B or GF-C followed by counting of radioactivity. Alternatively, it might involve the measurement of an optical signal such as enhancement of fluorescence emission in the case of fluorescent ligands.
(§4) To perform the in-situ destabilisation assay, a pre-determined concentration of the detergent or other destabilising agent of choice is mixed with a membrane or cell suspension containing the pre-labelled membrane protein in an appropriate buffer composition at a particular temperature and for a particular time, determined as described below.
Regarding B1, the “enhanced stability relative to wild-type (retention of bound 3H-NMS)” value is reported as 2 fold.

The subject of the next series is M1 mAChR.
Assay: not given
It counts as physicochemical. As to conditions: 0.82% BOG, 3 h, 4° C., whole E. coli BL21 cells; single culture; listed as L65A 1. The protocol: as §1, §2, §3, §4
On to B1, for which the “% 3H-NMS retained BOG” value was 83% and 79%.

Staying with this series, now noted: 0.82% BOG, 3 h, 4° C., whole E. coli BL21 cells; single culture; listed as L65 A 2.
B1: the “% 3H-NMS retained BOG” value is recorded as 86%.

The series is the same for the next values; noted with them: 0.82% BOG, 3 h, 4° C., whole E. coli BL21 cells; single culture; listed as L65A 2.
On to B1, for which the “% 3H-NMS retained BOG” value is reported as 79%.

The same series, now with this note: 0.82% BOG, 3 h, 4° C., whole E. coli BL21 cells; single culture; listed as L65V 1.
As for B2, the “% 3H-NMS retained BOG” value is 81%.

Staying with this series, now noted: 0.82% BOG, 3 h, 4° C., whole E. coli BL21 cells; single culture; listed as L65V 2.
Take B2: the “% 3H-NMS retained BOG” value is 95%.

Still in this series, the particulars now being: 0.82% BOG, 3 h, 4° C.; % loss relative to wild-type control.
With B2, the “% loss/wt” value worked out at 0.23.

Staying with this series, now noted: 0.82% BOG, 3 h, 4° C.; % loss relative to wild-type control; listed as L65A 1.
B1: the “% loss/wt” value is 0.29 and 0.4.

The same series, now with this note: 0.82% BOG, 3 h, 4° C.; mean of the cultures.
Take B2: the mean % retained amounted to 88%.

Staying with this series, now noted: 0.82% BOG, 3 h, 4° C.; mean of the cultures; listed as L65A 1.
For the molecule B1, the mean % retained is 84.5% and 79%.

The same series, now with this note: 0.82% β-octyl glucoside, 3 h, 4° C.; % loss(control)/% loss(mutant); mean±SEM of 3.
Regarding B1, the “Stability (βOG in-situ) % L65A control” value amounted to 100 % L65A control.

In the case of B3, the “Stability (βOG in-situ) % L65A control” value is 125 ± 16 % L65A control.

As to B4, the “Stability (βOG in-situ) % L65A control” value is 166 ± 16 % L65A control.

Consider B5, for which the “Stability (βOG in-situ) % L65A control” value is reported as 175 ± 61 % L65A control.

For the molecule B2, the “Stability (βOG in-situ) % L65A control” value turned out to be 115 % L65A control.

With B6, the “Stability (βOG in-situ) % L65A control” value is 106 ± 5 % L65A control.

Turning to B7, the “Stability (βOG in-situ) % L65A control” value was 34 ± 3 % L65A control.

Regarding B8, the “Stability (βOG in-situ) % L65A control” value is recorded as 94 ± 1 % L65A control.

For the molecule B9, the “Stability (βOG in-situ) % L65A control” value was found to be 105 ± 10 % L65A control.

Take B10: the “Stability (βOG in-situ) % L65A control” value was 100 ± 7 % L65A control.

Regarding B11, the “Stability (βOG in-situ) % L65A control” value was determined as 74 ± 16 % L65A control.

For B12, the “Stability (βOG in-situ) % L65A control” value is on record as 136 ± 9 % L65A control.

Staying with this series, now noted: 0.82% β-octyl glucoside, L65A background.
Consider B4, for which the “in-situ stability relative to L65A, in words” value is reported as “more stable”.

As for B5, the “in-situ stability relative to L65A, in words” value is “enhanced stability in 2 out of 3 experiments”.

Turning to B7, the “in-situ stability relative to L65A, in words” value was “significantly reduced stability”.

Turning to B12, the “in-situ stability relative to L65A, in words” value is listed as “more stable”.

Another series concerns M1 mAChR. Description: thermal stability (Tm) of partially purified [3H]NMS-labelled receptors in 0.1% dodecyl-β-maltoside. The following applies: 0.1% DDM, incubation time 30 min; mean±range/SEM. It counts as physicochemical, rat. The protocol:
For measurements of thermal melting temperature (Tm), [3H]NMS-labelled receptors were partially purified by immobilized metal ion affinity chromatography from cultures grown from single clones expressed in E. Coli BL21 cells, essentially as described in Hulme and Curtis, 1998 (21). Tm measurements were carried out after gel-filtration of partially purified receptors into 50 mM sodium phosphate, 5 mM β-mercaptoethanol and 0.1% dodecyl-β-maltoside (DDM), using an incubation time of 30 min. Values were tabulated as mean±range/SEM of 2 or more independent measurements (Table 3).
Turning to B1, the “Tm (0.1% DDM)” value is 29.3 ± 0.4 °C.

As to B3, the “Tm (0.1% DDM)” value was determined as 29.8 ± 1.0 °C.

As for B4, the “Tm (0.1% DDM)” value worked out at 33.6 ± 0.2 °C.

On to B5, for which the “Tm (0.1% DDM)” value is 25.3 ± 0.5 °C.

On to B2, for which the “Tm (0.1% DDM)” value came to 32.6 ± 0.4 °C.

As to B6, the “Tm (0.1% DDM)” value was 28.1 ± 0.1 °C.

With B7, the “Tm (0.1% DDM)” value is 26.8 °C.

As for B8, the “Tm (0.1% DDM)” value is 31.1 ± 0.2 °C.

For B9, the “Tm (0.1% DDM)” value came out at 30.1 ± 0.5 °C.

Regarding B10, the “Tm (0.1% DDM)” value came to 29.6 ± 0.5 °C.

Turning to B11, the “Tm (0.1% DDM)” value was determined as 30.2 ± 0.5 °C.

In the case of B12, the “Tm (0.1% DDM)” value is 31.0 ± 0.4 °C.

Staying with this series, now noted: partially purified mutants, 0.1% DDM.
With B4, the “thermal stability (Tm) relative to L65A, in words” value is listed as “increased stability”.

Consider B5, for which the “thermal stability (Tm) relative to L65A, in words” value is “Reduced stability”.

For the molecule B2, the “thermal stability (Tm) relative to L65A, in words” value was “more stable than L65A”.

For B7, the “thermal stability (Tm) relative to L65A, in words” value is “reduced stability”.

For the molecule B8, the “thermal stability (Tm) relative to L65A, in words” value is listed as “marginal increase”.

In the case of B12, the “thermal stability (Tm) relative to L65A, in words” value is on record as “increased stability”.
